PMC7589169, “High-Resolution Crystal Structure of Chloroplastic Ribose-5-Phosphate Isomerase from Chlamydomonas reinhardtii—An Enzyme Involved in the Photosynthetic Calvin-Benson Cycle” (International Journal of Molecular Sciences, 2020)

Tests used:
[1] = target: the molecule itself; assay: SEC; purified CrRPI1 on two different gel filtration matrices (Superose 6 increase; BioSEC-3 300), buffer C (20 mM Tris-HCl pH 7.9, 100 mmol/L NaCl); oligomer state from apparent molecular weight
[2] = target: the molecule itself; assay: SEC-SAXS; 50 µL of CrRPI1 at 10 mg/mL on BioSEC-3 300 column in buffer C in series with the SAXS capillary (SWING, SOLEIL); molecular weight from scattering, curve fitted to the crystallographic dimer

B1: Chlamydomonas reinhardtii chloroplastic ribose-5-phosphate isomerase 1 (CrRPI1) (enzyme, UniProt A8IRQ1 23-269, looked up)
chain: MAAPVSTQLSQDELKKQAAWKAVEYVKSGMVVGLGTGSTAAFAVDRIGQLLKEGKLQNIVGVPTSIRTYEQALSLGIPLATLDEQPKLDVAIDGADEVDPNLDVVKGRGGALLREKMVEMASAKFVCIVDDSKLVEGLGGSKLAMPVEIVQFCHKYTLQRLANLPEVKGCEAKLRMNGDKPYVTDNSNYIVDLYFQTPIKDSQAASKAILGLDGVVDHGLFLDMVDVCIIAGATGVTVQERPNPKKH
notes: residues numbered according to UniProtKB entry A8IRQ1; Theoretical Mw of the recombinant monomer is printed as 27,551 Da; The forward primer introduces an NcoI site at the start codon; source: E. coli BL21(DE3) Rosetta-2 pLysS, purified (NiNTA)
In the case of B1, the “stoichiometry N” value [1] is reported as 2 and the “stoichiometry N” value [2] is reported as 1.78 to 2.
